Experimental data as given in patent EP4818206A1.
pEC50: −log10 of the molar value.

Experiments:
[1] = molecular target: cynomolgus CD84 (NCBI Accession No. XM_005541244.3), on HEK293T cells (cynomolgus); test: flow cytometry on HEK293T-Cyno-CD84 cells
[2] = molecular target: human CD84 (NCBI Accession No. NP_001171808.1), on cells (human) (UniProt Q9UIB8); test: flow cytometry on HEK293T-hCD84 cells
UniProt Q9UIB8, sequence (Q9UIB8 22-345): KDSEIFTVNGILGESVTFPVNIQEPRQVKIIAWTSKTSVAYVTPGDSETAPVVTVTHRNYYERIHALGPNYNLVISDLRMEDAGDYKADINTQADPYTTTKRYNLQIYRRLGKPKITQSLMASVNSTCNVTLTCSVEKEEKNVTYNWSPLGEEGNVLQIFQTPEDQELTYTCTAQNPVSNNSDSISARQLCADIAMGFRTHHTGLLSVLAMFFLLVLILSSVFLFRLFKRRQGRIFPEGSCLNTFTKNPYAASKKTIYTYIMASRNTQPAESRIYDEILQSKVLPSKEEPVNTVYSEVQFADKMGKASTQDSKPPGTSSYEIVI

## CD84.1.21 (Biolegend; Cat. No. 326002) (antibody)
[1]
  pEC50: 7.78
  MFI (max): 57700 MFI
[2]
  pEC50: 8.68
  MFI (max): 134000 MFI
